Measured values taken from the Immune Epitope Database (IEDB).

Legend:
HLA-A*02:17 = assay: IEDB peptide-MHC binding, purified MHC/competitive/radioactivity; filed as Kd, often an IC50 or EC50 that approximates it; ≥ and ≤ were set here for values at or beyond the usual limits of such assays
HLA-A*02:01 = assay: as above
HLA-B*57:01 [1] = assay: as above
HLA-B*58:01 = assay: as above
HLA-A*02:06 = assay: as above
HLA-B*53:01 = assay: as above
HLA-B*35:01 = assay: as above; settings: source organism: Dengue virus 4 Philippines/H241/1956
HLA-B*51:01 [2] = assay: as above; settings: source organism: Dengue virus 4 Philippines/H241/1956
HLA-B*15:01 = assay: IEDB peptide-MHC binding, purified MHC/competitive/fluorescence; ≥ and ≤ were set here for values at or beyond the usual limits of such assays
HLA-A*24:02 = assay: as above; settings: source organism: Zaire ebolavirus
HLA-A*26:01 = assay: IEDB peptide-MHC binding, purified MHC/competitive/fluorescence; filed as Kd, often an IC50 or EC50 that approximates it; ≥ and ≤ were set here for values at or beyond the usual limits of such assays; settings: source organism: Hantavirus HPR/02-73
HLA-B*39:01 = assay: as above; settings: source organism: Hantavirus HPR/02-73
HLA-B*15:17 = assay: as above; settings: source organism: Hantavirus HPR/02-73
HLA-B*57:01 [3] = assay: as above; settings: source organism: Hantavirus HPR/02-73
HLA-B*46:01 = assay: as above; settings: source organism: Hantavirus HPR/02-73
HLA-B*18:01 = assay: as above; settings: source organism: Hantavirus HPR/02-73
HLA-A*69:01 = assay: as above; settings: source organism: Hantavirus HPR/02-73
HLA-B*27:03 = assay: as above; settings: source organism: Hantavirus HPR/02-73
HLA-B*51:01 [4] = assay: as above; settings: source organism: Hantavirus HPR/02-73
HLA-A*02:19 = assay: IEDB peptide-MHC binding, purified MHC/direct/fluorescence; filed as Kd, often an IC50 or EC50 that approximates it; ≥ and ≤ were set here for values at or beyond the usual limits of such assays; settings: source organism: Araucaria virus
HLA-A*68:02 [5] = assay: as above; settings: source organism: Araucaria virus
HLA-A*02:03 [6] = assay: as above; settings: source organism: Araucaria virus
HLA-A*02:12 = assay: as above; settings: source organism: Araucaria virus
HLA-A*24:03 = assay: as above; settings: source organism: Araucaria virus
HLA-A*03:01 = assay: as above; settings: source organism: Juquitiba virus
HLA-B*08:01 = assay: IEDB peptide-MHC binding, purified MHC/competitive/radioactivity; filed as Kd, often an IC50 or EC50 that approximates it; ≥ and ≤ were set here for values at or beyond the usual limits of such assays; settings: source organism: Dengue virus 1 Brazil/97-11/1997
HLA-A*32:01 = assay: as above; settings: source organism: Dengue virus 1 Brazil/97-11/1997
HLA-A*68:02 [7] = assay: as above; settings: source organism: Dengue virus 1 Brazil/97-11/1997
HLA-A*02:03 [8] = assay: as above; settings: source organism: Dengue virus 1 Brazil/97-11/1997
HLA-A*11:01 = assay: IEDB peptide-MHC binding, purified MHC/competitive/fluorescence; ≥ and ≤ were set here for values at or beyond the usual limits of such assays; settings: source organism: Zaire ebolavirus
[9] = source organism: Dengue virus 2 Jamaica/1409/1983
[10] = source organism: Dengue virus 4 Dominica/814669/1981
[11] = source organism: Dengue virus 4 Philippines/H241/1956
[12] = source organism: Dengue virus 3 Singapore/8120/1995
[13] = source organism: Dengue virus 1 Brazil/97-11/1997
[14] = source organism: Dengue virus 1 Singapore/S275/1990
[15] = source organism: Zaire ebolavirus
[16] = source organism: Dengue virus 3 China/80-2/1980

Work on YMWLGARFL yielded a Kd (HLA-A*02:17; [9]) of 94.2 nM and a Kd (HLA-A*02:01; [9]) of 6.72 nM.

GSSIGKMFES showed a Kd (HLA-B*57:01 [1]; [10]) of 1830 nM and a Kd (HLA-B*58:01; [10]) of 251 nM.

PSSVAARGYI showed a Kd (HLA-B*57:01 [1]; [11]) of 16400 nM and a Kd (HLA-B*58:01; [11]) of 512 nM.

KTKLNDWDF showed a Kd (HLA-B*57:01 [1]; source organism: Dengue virus 3 Martinique/1243/1999) of 50.7 nM.

FSMGLLCLTL showed a Kd (HLA-A*02:06; [11]) of 8.49 nM, a Kd (HLA-A*02:17; [11]) of 84 nM and a Kd (HLA-B*53:01; [11]) of 333 nM. For the same sequence, the Kd (HLA-B*35:01) was 3070 nM, the Kd (HLA-B*51:01 [2]) was ≥ 69600 nM and the Kd (HLA-A*02:01; [11]) was 8990 nM.

HSSTWHYDDE was tested, and the Kd (HLA-B*57:01 [1]; [12]) was 6580 nM and the Kd (HLA-B*58:01; [12]) was 866 nM.

In the case of VSAGESSIL, the IC50 (HLA-B*15:01; source organism: Vaccinia virus Copenhagen) is reported as ≥ 87400 nM.

With MLLMLLPTA the Kd (HLA-A*02:06; [13]) was 1.08 nM, the Kd (HLA-A*02:17; [14]) was 161 nM and the Kd (HLA-A*02:01; [14]) was 0.482 nM.

In the case of IMAAILAYTI, the Kd (HLA-A*02:17; [9]) is reported as 1600 nM and the Kd (HLA-A*02:01; [9]) is reported as 30.6 nM.

AFHKEGAFF was tested, and the IC50 (HLA-B*15:01; [15]) was 1880 nM and the IC50 (HLA-A*24:02) was 19.9 nM.

MKITAEWLW showed a Kd (HLA-B*57:01 [1]; [9]) of 43.3 nM, a Kd (HLA-B*58:01; [9]) of 5.43 nM and a Kd (HLA-B*53:01; [9]) of 1090 nM.

In the case of GFAIPIILK, the Kd (HLA-A*26:01) is reported as ≥ 20000 nM, the Kd (HLA-B*39:01) is reported as ≥ 20000 nM and the Kd (HLA-B*15:17) is reported as ≥ 20000 nM. The Kd (HLA-B*57:01 [3]) was ≥ 20000 nM, the Kd (HLA-B*46:01) was ≥ 20000 nM and the Kd (HLA-B*18:01) was ≥ 20000 nM. The Kd (HLA-A*69:01) was ≥ 20000 nM, the Kd (HLA-B*27:03) was ≥ 20000 nM and the Kd (HLA-B*51:01 [4]) was ≥ 20000 nM. For the same sequence, the Kd (HLA-A*02:19) was ≥ 20000 nM, the Kd (HLA-A*68:02 [5]) was ≥ 20000 nM and the Kd (HLA-A*02:03 [6]) was ≥ 20000 nM. For the same sequence, the Kd (HLA-A*02:12) was ≥ 20000 nM, the Kd (HLA-A*24:03) was ≥ 20000 nM and the Kd (HLA-A*03:01) was 6000 nM.

Sequence VLLLVTHYA has a Kd (HLA-A*02:17; [16]) of 6820 nM and a Kd (HLA-A*02:01; [16]) of 6.97 nM.

For MLMTGTLAV, the Kd (HLA-A*02:06; [13]) was 9.69 nM, the Kd (HLA-B*08:01) was 22.5 nM and the Kd (HLA-A*32:01) was 502 nM. For the same sequence, the Kd (HLA-A*02:17; [14]) was 753 nM, the Kd (HLA-A*68:02 [7]) was 9.71 nM and the Kd (HLA-A*02:03 [8]) was 0.47 nM. It also gave a Kd (HLA-A*02:01; [14]) of 19.7 nM.

For GTSLLFLNDM, the Kd (HLA-B*57:01 [1]; [10]) was ≥ 22100 nM.

For SQKGQHIEG, the IC50 (HLA-A*11:01) was ≥ 186000 nM and the IC50 (HLA-B*15:01; [15]) was 46500 nM.
